Test results as given in article PMC11349758.

Legend:
STAT5A = STAT5A (UniProt P42230); assay: anti-STAT5A IP, anti-STAT5B blot; conditions: reference: WT T cells, IL-2 stimulated; sites Y699
STAT5B = STAT5B (UniProt P42232); assay: anti-STAT5A IP, anti-STAT5B blot; conditions: reference: WT T cells, IL-2 stimulated; sites Y694

| binding against the reference (STAT5A) | binding against the reference (STAT5B) | Substance |
| --- | --- | --- |
| lost | – | STAT5B (from UniProt P42232) Stat5b KI (Y699F) T cells, IL-2 stimulated |
| – | lost | STAT5A (from UniProt P42230) Stat5a KI (Y694F) T cells, IL-2 stimulated |
